# From the RNAGym collection of RNA variant scans (doi:10.7554/elife.80360)
# B1: HDV Ribozyme (parent)
# chain: GGCCGGCAUGGUCCCAGCCUCCUCGCUGGCGCCGGCUGGGCAACAUUCCGAGGGGACCGUCCCCUCGGUAAUGGCGAAUGGGACCCA
# Variants of: B1
# Test: self-cleavage, relative activity (ratio to wild type); higher = more cleavage; co-transcriptional
row,Variant,self-cleavage
1,GGCCGGCGUGGUCCCAGGCUCCUCGCUGGCGCCGGCUGGGCAACAUUCCGAGGGGACCGUCCCCUCGGUAAUGGCGAAUGGGACCCA,0
2,GGCCGGCGUGGUCCCAGCGUCCUCGCUGGCGCCGGCUGGGCAACAUUCCGAGGGGACCGUCCCCUCGGUAAUGGCGAAUGGGACCCA,0.0594
3,GGCCGGCGUGGUCCCAGCCUCCUCGCUGGCGACGGCUGGGCAACAUUCCGAGGGGACCGUCCCCUCGGUAAUGGCGAAUGGGACCCA,0.0852
4,GGCCGGCGUGGUCCCAGCCUCCUCGCUGGCGCAGGCUGGGCAACAUUCCGAGGGGACCGUCCCCUCGGUAAUGGCGAAUGGGACCCA,0.101
5,GGCCGGCGUGGUCCCAGCCUCCUCGCUGGCGCUGGCUGGGCAACAUUCCGAGGGGACCGUCCCCUCGGUAAUGGCGAAUGGGACCCA,0.751
6,GGCCGGCGUGGUCCCAGCCUCCUCGCUGGCGCCGGUUGGGCAACAUUCCGAGGGGACCGUCCCCUCGGUAAUGGCGAAUGGGACCCA,0.727
7,GGCCGGCGUGGUCCCAGCCUCCUCGCUGGCGCCGGCUGGGUAACAUUCCGAGGGGACCGUCCCCUCGGUAAUGGCGAAUGGGACCCA,0.917
8,GGCCGGCGUGGUCCCAGCCUCCUCGCUGGCGCCGGCUGGGCAACAUUCAGAGGGGACCGUCCCCUCGGUAAUGGCGAAUGGGACCCA,0.939
9,GGCCGGCGUGGUCCCAGCCUCCUCGCUGGCGCCGGCUGGGCAACAUUCCGAGGGGACCGUACCCUCGGUAAUGGCGAAUGGGACCCA,0.886
10,GGCCGGCGUGGUCCCAGCCUCCUCGCUGGCGCCGGCUGGGCAACAUUCCGAGGGGACCGUCGCCUCGGUAAUGGCGAAUGGGACCCA,0.489
11,GGCCGGCGUGGUCCCAGCCUCCUCGCUGGCGCCGGCUGGGCAACAUUCCGAGGGGACCGUCUCCUCGGUAAUGGCGAAUGGGACCCA,0.95
12,GGCCGGCGUGGUCCCAGCCUCCUCGCUGGCGCCGGCUGGGCAACAUUCCGAGGGGACCGUCCUCUCGGUAAUGGCGAAUGGGACCCA,1.26
13,GGCCGGCGUGGUCCCAGCCUCCUCGCUGGCGCCGGCUGGGCAACAUUCCGAGGGGACCGUCCCGUCGGUAAUGGCGAAUGGGACCCA,0.7
14,GGCCGGCGUGGUCCCAGCCUCCUCGCUGGCGCCGGCUGGGCAACAUUCCGAGGGGACCGUCCCUUCGGUAAUGGCGAAUGGGACCCA,1.07
15,GGCCGGCGUGGUCCCAGCCUCCUCGCUGGCGCCGGCUGGGCAACAUUCCGAGGGGACCGUCCCCUUGGUAAUGGCGAAUGGGACCCA,1.14
16,GGCCGGCGUGGUCCCAGCCUCCUCGCUGGCGCCGGCUGGGCAACAUUCCGAGGGGACCGUCCCCUCGGUAAUGGAGAAUGGGACCCA,0.0692

row,Variant,self-cleavage
1,GGCCGGCGUGGUCCCAGCCUCCUCGCUGGCGCCGGCUGGGCAACAUUCCGAGGGGACCGUCCCCUCGGUAAUGGCGAAUGGGAACCA,0.598
2,GGCCGGCGUGGUCCCAGCCUCCUCGCUGGCGCCGGCUGGGCAACAUUCCGAGGGGACCGUCCCCUCGGUAAUGGCGAAUGGGACGCA,0.895
3,GGCCGGCGUGGUCCCAGCCUCCUCGCUGGCGCCGGCUGGGCAACAUUCCGAGGGGACCGUCCCCUCGGUAAUGGCGAAUGGGACCUA,1.11
4,GGCCGGCGUAGUCCCAGCCUCCUCGCUGGCGCCGGCUGGGCAACAUUCCGAGGGGACCGUCCCCUCGGUAAUGGCGAAUGGGACCCA,0.369
5,GGCCGGCGUGCUCCCAGCCUCCUCGCUGGCGCCGGCUGGGCAACAUUCCGAGGGGACCGUCCCCUCGGUAAUGGCGAAUGGGACCCA,0.0437
6,GGCCGGCGUGUUCCCAGCCUCCUCGCUGGCGCCGGCUGGGCAACAUUCCGAGGGGACCGUCCCCUCGGUAAUGGCGAAUGGGACCCA,0.0739
7,GGCCGGCGUGGUCCCAGCCUCCUCGCUAGCGCCGGCUGGGCAACAUUCCGAGGGGACCGUCCCCUCGGUAAUGGCGAAUGGGACCCA,0.166
8,GGCCGGCGUGGUCCCAGCCUCCUCGCUCGCGCCGGCUGGGCAACAUUCCGAGGGGACCGUCCCCUCGGUAAUGGCGAAUGGGACCCA,0
9,GGCCGGCGUGGUCCCAGCCUCCUCGCUGGCGCCGUCUGGGCAACAUUCCGAGGGGACCGUCCCCUCGGUAAUGGCGAAUGGGACCCA,0.306
10,GGCCGGCGUGGUCCCAGCCUCCUCGCUGGCGCCGGCUAGGCAACAUUCCGAGGGGACCGUCCCCUCGGUAAUGGCGAAUGGGACCCA,0.0959
11,GGCCGGCGUGGUCCCAGCCUCCUCGCUGGCGCCGGCUUGGCAACAUUCCGAGGGGACCGUCCCCUCGGUAAUGGCGAAUGGGACCCA,0.0405
12,GGCCGGCGUGGUCCCAGCCUCCUCGCUGGCGCCGGCUGCGCAACAUUCCGAGGGGACCGUCCCCUCGGUAAUGGCGAAUGGGACCCA,0.142
13,GGCCGGCGUGGUCCCAGCCUCCUCGCUGGCGCCGGCUGGACAACAUUCCGAGGGGACCGUCCCCUCGGUAAUGGCGAAUGGGACCCA,1.08
14,GGCCGGCGUGGUCCCAGCCUCCUCGCUGGCGCCGGCUGGGCAACAUUCCGAAGGGACCGUCCCCUCGGUAAUGGCGAAUGGGACCCA,0.719
15,GGCCGGCGUGGUCCCAGCCUCCUCGCUGGCGCCGGCUGGGCAACAUUCCGACGGGACCGUCCCCUCGGUAAUGGCGAAUGGGACCCA,1.26
16,GGCCGGCGUGGUCCCAGCCUCCUCGCUGGCGCCGGCUGGGCAACAUUCCGAGGGGACCCUCCCCUCGGUAAUGGCGAAUGGGACCCA,0.858
